According to the nanobody polyreactivity screen of Harvey et al. (2022):

Experiment: yeast display, Sf9 membrane polyspecificity reagent, FACS + sequencing; frameworks hold sequencing errors
In short: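 Using colony PCR, genes from sorted yeast display clones were amplified, then sequenced on MiSeq at 2 × 250 and filtered by CDR length. The clones had been stained with 10% biotinylated, detergent-solubilized Sf9 membrane reagent for 1 hour at 4 °C and sorted by FACS into low and high (top ~1%) gates on anti-HA and streptavidin fluorescence. Polyreactivity labels come from the gate of origin.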

Row | Sequence | polyreactivity (PSR sort gate)
1 | QVQLVESGGGLVQAGGSLRLSCAASGFTFRRYAMGWYRQAPGKERELVAAITWSGGSTYYADSVKGRFTISRDNAKNTVYLQMNSLKPEDTAVYYCNKAYSPLYFSYNYWGQGTQVTVSS | high polyreactivity
2 | QVQLVESGGGLVQAGGSLRLSCAASGFTFRRYAMGWYRQAPGKERELVATITKGGGSTYYADSVKGRFTISRDNAKNTVYLQMNSLKPEDTAVYYCAKRYPYGLTVGASDYWGQCTQVTVSS | high polyreactivity
3 | QVQLVESGGGLVQAGGSLRLSCAASGFTFRRYAMGWYRQAPGKERELVAVITSTDSTYYADSVKGRFTISRDNAKNTVYFQMYSLKPEDTAVYYCARVYLGPRYAVFIYGYWGQGTQVTVSS | high polyreactivity
4 | QVQLVESGGGLVQAGGSLRLSCAASGFTFRRYAMGWYRQAPGKERELVAVITTAGSTNYADSVKGRFTISRDNAKNTVYLQMNSLKPEDTAVYYCATDNGTRKRRYDYWGQGTQVTVSS | low polyreactivity
5 | QVQLVESGGGLVQAGGSLRLSCAASGFTFRRYAMGWYRQAPGKERELVAVITTGGSTYYADSVKGRFTISRDNAKYTVYLQMNSLKPEDTAVYYCAARYYWYSQEYVMSSWWGDYWGLGTQVTVSS | high polyreactivity
6 | QVQLVESGGGLVQAGGSLRLSCAASGFTFRRYDMGWYRQAPGKERELVATINRGGSTDYADSVKGRFTISRDNAKNTVYLQMNSLKPEDTAVYYCATRYYSSRTWSEYYYWGQGTQVTVSS | high polyreactivity
7 | QVQLVESGGGLVQAGGSLRLSCAASGFTFRRYTMGWYRQAPGKERELVARISSRGGRTFYADSVKGRFTISRDNAKNTVYLQMNSLKPEDTAVYYCAKRAPYGTTSPGGDYWGQGTQVTVSS | high polyreactivity
8 | QVQLVESGGGLVQAGGSLRLSCAASGFTFRRYVMGWYRQAPGKERELVAAISSGGRTNYADSVKGRFTISRYNAKNTVYLQMNSLKPEDTAVYYCNKASTSYYRFNYWGQGTQVTVSS | high polyreactivity
9 | QVQLVESGGGLVQAGGSLRLSCAASGFTFRSNVMGWSRQAPGKERELVAGITQRGGRTYYADSEKGRFTISRDNAKNTVYLQMNSLKPEDTAVYYCAADRSEYDYWGQGTQVTVSS | high polyreactivity
10 | QVQLVESGGGLVQAGGSLRLSCAASGFTFRSNVMGWYRQATGKERELVAAISWSGGSTYYADSVKGRFTISRDNAKNNVYLQMNSLKPEDTAVYYCATVQVVGPWSYRKLDYWGQGTQVTVSS | high polyreactivity
11 | QVQLVESGGGLVQAGGSLRLSCAASGFTFRTNAMGWYRQAPGKERELVAVISRRGGSTYYADSVKGRFTISRDNAKNTVYLQMNSLKPEDTGVYYCNAGDGTVGRTYYRAYDYWGQGTQVTVSS | high polyreactivity
12 | QVQLVESGGGLVQAGGSLRLSCAASGFTFRTYAMGWYRQAPGKERELVATIRRAGSTNYADSVKGRFTISRDNAKNTVYLQMNSLNPEDTAVYYCAARVVTRVRGVGYNYWGQGTQVTVSS | high polyreactivity
13 | QVQLVESGGGLVQAGGSLRLSCAASGFTFRVNAMGWYRQAPGKERELVAAISSGGRTYYADSVKGRFTISRDNAKNTVYLQMNSLKPEDTAVYYCNAGRVRHGNDYWGQGTQVTVSS | high polyreactivity
14 | QVQLVESGGGLVQAGGSLRLSCAASGFTFRVNAMGWYRQAPGKERELVAAISSGGSTNYADSVKGRFTISRDNAKYTVYLQMNSLKPEDTAVYYCAKRFKYIYYWGQGTQVTVSS | high polyreactivity
15 | QVQLVESGGGLVQAGGSLRLSCAASGFTFRVNAMGWYRQAPGKERELVAAITYSGGSTYYADSVKGRFTISRDNAKNTVYLQMNSLKPEDTAVYYCNKARWNSWLYGYHYRGLRSYDYWGQGTQVSVSS | high polyreactivity
16 | QVQLVESGGGLVQAGGSLRLSCAASGFTFRVNAMGWYRQAPGKERELVASITVSGGNTYYADSVKGRFTISRDNEKNTVYLLMNSLKPEDTAVYYCATDFSPVYYTRYDYWGQGTQVTVSS | low polyreactivity
17 | QVQLVESGGGLVQAGGSLRLSCAASGFTFRVYAMGWYIQAPGKERELVAAITKRGGTTYYADSVKGRFTISRDNAKNTVYLQMNSLKPEDTAVYYCATENTPHYASHGYLGQGTQVTVSS | high polyreactivity
18 | QVQLVESGGGLVQAGGSLRLSCAASGFTFRVYAMGWYRQAPGKERELVAVISGTGGRTYYADSVKGRFTISRDIAKNTVYLQMNSLKPEDTAVYYCARRGRPPAIYDYWGQGTQVTVSS | high polyreactivity
19 | QVQLVESGGGLVQAGGSLRLSCAASGFTFRVYAMGWYRTAPVKEREFVASITWGGGRTYYADSVKGRFTISRDNAKNTVYLLMNSLKPEDTAVYYCAAYGSLDSYVSYYYWGQGTQVTVSS | high polyreactivity
20 | QVQLVESGGGLVQAGGSLRLSCAASGFTFRWYAMGWYRPAPGKERELVADISRGGSTNYADSVKGRFTISRDNAKNTVYLQMNSLKPEDTAVYYCAAVVYRATYRVGGYLWYYYWGQGTQVTVSS | high polyreactivity
21 | QVQLVESGGGLVQAGGSLRLSCAASGFTFRWYAMGWYRQAPGKERELVAAISSGGGSTYYADSVKGRFTISRDNAKNTVYLQMNSLKPEDTAVYYCNARIQYFKYRGYEYWGQGTQVTVSS | high polyreactivity
22 | QVQLVESGGGLVQAGGSLRLSCAASGFTFRWYAMGWYRQAPGKERELVAAISSSGGSTYYADSVKGRFTISRDNAKNTVYLQMKSLKPEDTAVYYCNTDANYLTNTIYDYWGQGTQVTVSS | high polyreactivity

Row | Sequence | polyreactivity (PSR sort gate)
23 | QVQLVESGGGLVQAGGSLRLSCAASGFTFRWYAMGWYRQAPGKERELVAAISTSGGSTYYADSVKGRFTITRDNAKNTVYLQMNSLKPEDTSVYYCNRVNNYPTRKYDYWGQGSQVTVSS | high polyreactivity
24 | QVQLVESGGGLVQAGGSLRLSCAASGFTFRWYAMGWYRQAPGKERELVARISWDGGSTYYADSVKGRFTISRDNAKNTVYLQMNSLKPEDTAVYDCAKDWYYLRRNYDYWGQGTQVTVSS | high polyreactivity
25 | QVQLVESGGGLVQAGGSLRLSCAASGFTFRWYTMGWYRPAPGKERELVAAISWSGTSTYYADSVKGRFTISRDNAKNTVYLQMNSLKPEDTAVYYCAAADFYYTGADDYWGQGTQVTVSS | high polyreactivity
26 | QVQLVESGGGLVQAGGSLRLSCAASGFTFRWYTMGWYRQAPGKERELGAAINRGGSTYYADSVKGRFTISRDNAQNTVYLQMNSLKPEDTAVYYCAKSVSASWGRDYWGQGTQVTVSS | high polyreactivity
27 | QVQLVESGGGLVQAGGSLRLSCAASGFTFRWYTMGWYRQAPGKERELVAAISWSGTSTYYADSVKGRFTISRDNAKNIVYLQMNSLKPEDTAVYYCAAADFYYTGADDYWGQGTQVTVSS | high polyreactivity
28 | QVQLVESGGGLVQAGGSLRLSCAASGFTFRYNAMGWYRQAPGKEREVVAAITSGGNTNYADSVKGRFTISRDNAKNTFYLQMNSLKPEDTAVYYCNTAWRDYVARLGGVGYDYWGQGTQVTVSS | high polyreactivity
29 | QVQLVESGGGLVQAGGSLRLSCAASGFTFRYYAMGRSRQAPGKERELVAAITGSGVNTYYADSVKGRFTISRDNAKNTVYLQMNSLKPEDTAVYYCAAESESDPLFDRYYWGQGTQVTVSS | high polyreactivity
30 | QVQLVESGGGLVQAGGSLRLSCAASGFTFRYYAMGWSRQAAGKERELVATITGSGGSTYYADSVKGRFTISRDNAKNTVYLQMNSLKPEDTAVYYCNTVWYSDVRYTRFYYWGQGTQVTVSS | high polyreactivity
31 | QVQLVESGGGLVQAGGSLRLSCAASGFTFRYYAMGWYRPAPGKERELVAGISWSGSRTYYADSVKGRFTISRDSAKNTVYLQMNSLKPEDTAVYYCAKVNSYGPVPDRYDYWGQGTQVTVSS | high polyreactivity
32 | QVQLVESGGGLVQAGGSLRLSCAASGFTFRYYAMGWYRQAPGKEREFVAAITYNGVSTYYADSVKGRFTISRDNAKNTVYLQMNSLKPEDTAVYYCAAGWYYYARPRVYNAREYYYWGQGTQVTVSS | high polyreactivity
33 | QVQLVESGGGLVQAGGSLRLSCAASGFTFRYYAMGWYRQAPGKERELVAAISAGGSTYYADSVKGRFTISRDNAKNTVYLQMNSLKQEDTAVYYCTARYQGFVITYYYWGQGTQVTVSS | high polyreactivity
34 | QVQLVESGGGLVQAGGSLRLSCAASGFTFRYYAMGWYRQAPGKERELVAAITRRSGSTYYADSVKGRFTISRDNAKNTVYLQMNSLKPEDTAVYYCAARASTIMGSWGQGTQVTVSS | high polyreactivity
35 | QVQLVESGGGLVQAGGSLRLSCAASGFTFRYYAMGWYRQAPGKERELVATITGYGGSTYYADSVKGRFTISRDNAKNTVYLQMNSLKPEDTAVYYCNTVWYTDVRYTRFYYWGQGTQVTVSS | high polyreactivity
36 | QVQLVESGGGLVQAGGSLRLSCAASGFTFRYYAMGWYRQEPGKERELVARISSGGSTNYADSVKGRFTISRDNAKNTVYLQMNSLKPEDTSVKYCAARLDHWLIYAYDYWGQGTQVTVSS | high polyreactivity
37 | QVQLVESGGGLVQAGGSLRLSCAASGFTFRYYTMGWYRQAPGKERELVAAITSSGGNTYYADSVKGRFTISRDNAKYTVYLQMNSLKPEDTAVYYCAADGRYYAVFRYDYWGQGTQVTVSS | low polyreactivity
38 | QVQLVESGGGLVQAGGSLRLSCAASGFTFSAYAMGWYRPAPGKERELVAAISWSGSRTYYADSVKGRFTISRDNAKNTVYLQMNSLKQEDTEVYYCAKEPYDTFGFYEYDYWGQGTQVTVSS | low polyreactivity
39 | QVQLVESGGGLVQAGGSLRLSCAASGFTFSAYDMGWYRQAPGKERELVAAISWSGGRTYYADSVKGRFTISRDNAKNTVYLQMNSLKPEDTAVYYCNAASLRYSYTLFDSWGQGTQVTVSS | high polyreactivity
40 | QVQLVESGGGLVQAGGSLRLSCAASGFTFSAYTMGWYRQAPGKERELVAAINWSGANTYYADSVKGRFTISRDNAKNTVYLQMNSLKPEDTAVYYCNAEDDYTYDLSFGGYKYDYWGQGTQVTVSS | low polyreactivity
41 | QVQLVESGGGLVQAGGSLRLSCAASGFTFSDYAMGWYRQAPGKERELVAAISTRGSSTYYADSVKGRFTISRDNAKNTVYLQMNSLKPEDTAVYYCNAVGSYSGYYYWGQGTQVTVSS | high polyreactivity
42 | QVQLVESGGGLVQAGGSLRLSCAASGFTFSENTMGWYRQAPGKERELVADIDSGGSTYYADSVKGRFTISRDNAKNTVYLQMKRLKPEDTAVYYCAKDYHVVGGPTFLFEYDYWGQGSQVTVSS | low polyreactivity
43 | QVQLVESGGGLVQAGGSLRLSCAASGFTFSFYAMGWYRQAPGKERELVAGISKRGGSTYYADSVKGRFTISRDNAKNTVYFLMNSLNPEDTAVYYCAARWYARSLTRFNYWGQGTQVTVSS | high polyreactivity
